The values below come from patent US20230071609A1 (Genentech, published 2023).

The target in experiment [1] is T1, iAPOL1-G0 in podocytes (EIK variant, doxycycline-inducible, in APOL1 KO podocytes) (human, UniProt O14791 29-398).
T1 construct: Stably re-expressed untagged APOL1 isoform A in APOL1 KO clone 89401-3; also called iAPOL1-G0 podocytes; iAPOL1 podocytes
T1 chain: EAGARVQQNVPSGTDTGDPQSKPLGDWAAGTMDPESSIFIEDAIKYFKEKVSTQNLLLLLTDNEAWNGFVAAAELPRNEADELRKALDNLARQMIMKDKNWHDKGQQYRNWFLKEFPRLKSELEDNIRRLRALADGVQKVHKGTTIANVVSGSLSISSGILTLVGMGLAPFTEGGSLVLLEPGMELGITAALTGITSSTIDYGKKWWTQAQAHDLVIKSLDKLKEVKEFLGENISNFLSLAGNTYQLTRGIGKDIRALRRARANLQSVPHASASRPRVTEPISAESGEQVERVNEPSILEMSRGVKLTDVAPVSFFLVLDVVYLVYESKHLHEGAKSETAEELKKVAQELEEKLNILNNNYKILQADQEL
Description: immunoelectron microscopy, APOL1-G0 podocytes. How it is done: Scale bars are 200 nm. APOL1 appears more closely associated with the inner ER membrane face than does the luminal KDEL.
For iEM, 1.4×10⁶ HEK-293 cells in T25 flasks were reverse transfected with 5.4 μg APOL1 or APOL2 cDNA with 12 μl Fugene 6 (Roche 11814443001) for 50 h or 65 h, respectively. Podocytes and transiently transfected HEK-293 cells were fixed with 4% paraformaldehyde in 0.1M phosphate buffer (PB), pH 7.4, for 2 h at room temperature, then overnight at 4° C., and with 2% paraformaldehyde, 0.2% glutaraldehyde in 0.1 M phosphate buffer (PB), pH 7.4, for 2 h at room temperature, respectively. Fixations were continued in 1% PFA in 0.1 M PB at 4° C. for several days. […] For quantitation, random images of APOL1/2 expressing HEK-293 cells and podocytes were made. The positions of at least 50 gold particles per antibody were scored as either (i) OMF: overlapping on outer ER membrane surface and cytosol, or located in the cytosol at a distance ≤15 nm between outer ER membrane surface and the 10 nm gold particle surface; (ii) IMF: overlapping on inner ER membrane surface and ER lumen, or located in the lumen at a distance ≤15 nm between inner ER membrane surface and gold particle surface; or (iii) Lumen: within the ER lumen, with a distance >15 nm between the 10 nm gold particle surface and the nearest inner ER membrane surface. […]

Experiment [2] deals with T1, iAPOL1-G0 in podocytes (EIK variant, …). Briefly: immunoelectron microscopy, iAPOL1-G0 podocytes, 25 µg/ml.

B1: antibody 3.6E10 (antibody, V domains shown)
VH: QVQLQQSGAELAKPGASVKMSCKASGYIFTSYYLHWVKQRPGQGLEWIGYINPNTGYTEYTQNFKDRATLTADKSSSTAYMQLTSLTSEDSAVYFCVNGNPFVYWGQGTLVTVSA
VL: DIVMTQSPSSLTVTTGEKVTMTCRSSQSLLNSGNQKNYLTWFQQKPGQPPKLLIYWTSTRYSGVPDRFTGSGSGTDFTLTISSVQAEDLAVYYCQNDYSYPLTFGAGTKLEIKR
notes: Mouse mAb, cloned as murine IgG2a LALAPG
On to B1, for which, in experiment [1], the binding result is recorded as “binds”.

B2: rabbit monoclonal antibody 5.17D12 (antibody, V domains shown)
VH: QSLEESGGDLVKPGASLTLTCTASGFSFSSNYYMCWVRQAPGKGLEWIACVYVGSGGSTYYASWAKGRFTFSKTSSTTWTLQMTSLTAADTATYFCARDLSYAGDLWGPGTLVTVSS
VL: DPVMTQTPASVSEPVGGTVTINCQASESISSYLAWYQQKPGQPPKLLIYGASNLASGVPSRFKGSGSGTEYTLTISDLECDDAATYYCQSAYYSNSGGHAFGGGTEVVVKG
notes: Rabbit mAb (Method #5), recombinant; also called rabmab 5.17D12
Consider B2, for which, in experiment [2], the binding result was “binds”.
